The source of these data is patent US20190142963A1 (INDIANA UNIVERSITY RESEARCH AND TECHNOLOGY, published 2019).

This assay deals with T1, human Klotho β (human, UniProt Q86Z14 1-1044).
T1 sequence (looked up): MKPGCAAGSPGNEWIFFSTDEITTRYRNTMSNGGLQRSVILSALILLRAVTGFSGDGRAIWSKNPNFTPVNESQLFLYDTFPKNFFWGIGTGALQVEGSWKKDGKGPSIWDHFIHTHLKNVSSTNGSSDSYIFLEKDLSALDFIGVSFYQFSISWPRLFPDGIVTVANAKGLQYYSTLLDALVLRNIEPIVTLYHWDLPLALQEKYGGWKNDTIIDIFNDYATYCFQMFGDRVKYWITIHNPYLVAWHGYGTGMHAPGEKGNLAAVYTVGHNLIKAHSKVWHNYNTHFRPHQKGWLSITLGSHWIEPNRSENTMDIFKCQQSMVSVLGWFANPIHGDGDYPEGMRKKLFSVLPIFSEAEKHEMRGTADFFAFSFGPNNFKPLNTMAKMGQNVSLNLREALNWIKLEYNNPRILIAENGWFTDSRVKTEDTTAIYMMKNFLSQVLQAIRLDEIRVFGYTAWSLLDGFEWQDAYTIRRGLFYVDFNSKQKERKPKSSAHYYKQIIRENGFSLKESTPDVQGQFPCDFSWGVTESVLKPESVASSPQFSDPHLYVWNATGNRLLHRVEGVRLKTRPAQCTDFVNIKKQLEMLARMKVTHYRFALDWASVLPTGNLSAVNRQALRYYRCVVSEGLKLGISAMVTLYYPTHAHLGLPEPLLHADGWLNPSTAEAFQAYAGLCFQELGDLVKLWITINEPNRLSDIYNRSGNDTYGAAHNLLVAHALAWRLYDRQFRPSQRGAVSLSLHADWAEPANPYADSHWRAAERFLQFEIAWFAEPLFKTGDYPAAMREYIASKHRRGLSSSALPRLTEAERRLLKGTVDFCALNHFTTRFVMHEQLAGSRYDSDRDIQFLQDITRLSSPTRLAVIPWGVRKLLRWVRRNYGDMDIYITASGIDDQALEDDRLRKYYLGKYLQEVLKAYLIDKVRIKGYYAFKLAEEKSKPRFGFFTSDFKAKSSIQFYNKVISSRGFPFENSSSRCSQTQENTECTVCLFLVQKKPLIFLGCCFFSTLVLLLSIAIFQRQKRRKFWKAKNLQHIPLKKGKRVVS
In words: cell-based or functional assay.
For the substance “FGF19 169-194 alanine mutant E185 (from UniProt O95750 191-216) (peptide)”, the IC-50 of antagonism of FGF21 (pErk1/2, 293 HEK hKLB cells) was 0.43 µM.

In turn, “FGF19 169-194 alanine mutant M175 (from UniProt O95750 191-216) (peptide)” displayed an IC-50 of antagonism of FGF21 (pErk1/2, 293 HEK hKLB cells) of 0.15 µM.

On to “FGF19 169-194 alanine mutant D173 (from UniProt O95750 191-216) (peptide)”, for which the IC-50 of antagonism of FGF21 (pErk1/2, 293 HEK hKLB cells) was 0.46 µM.

For “FGF19 169-194 alanine mutant S191 (from UniProt O95750 191-216) (peptide)”, the IC-50 of antagonism of FGF21 (pErk1/2, 293 HEK hKLB cells) was above 2 µM.

Take “FGF19 169-194 alanine mutant T182 (from UniProt O95750 191-216) (peptide)”: the IC-50 of antagonism of FGF21 (pErk1/2, 293 HEK hKLB cells) is 0.52 µM.

“FGF19 169-194 alanine mutant L170 (from UniProt O95750 191-216) (peptide)”: the IC-50 of antagonism of FGF21 (pErk1/2, 293 HEK hKLB cells) came to 2.17 µM.

With “FGF19 169-194 K194S (from UniProt O95750 191-216) (peptide)”, the IC-50 of antagonistic activity (FIG. 8A) came to 22.3 nM.

Regarding “FGF19 169-194 alanine mutant S174 (from UniProt O95750 191-216) (peptide)”, the IC-50 of antagonism of FGF21 (pErk1/2, 293 HEK hKLB cells) is 3.39 µM.

The substance “FGF19 169-194 alanine mutant V181 (from UniProt O95750 191-216) (peptide)” returned an IC-50 of antagonism of FGF21 (pErk1/2, 293 HEK hKLB cells) of 1.81 µM.

“FGF19 169-194 alanine mutant T172 (from UniProt O95750 191-216) (peptide)” displayed an IC-50 of antagonism of FGF21 (pErk1/2, 293 HEK hKLB cells) of 1.4 µM.

The substance “FGF19 169-194 alanine mutant S189 (from UniProt O95750 169-194) (peptide)” yielded an IC-50 of antagonism of FGF21 (pErk1/2, 293 HEK hKLB cells) above 2 µM.

The substance “FGF19 169-194 alanine mutant F192 (from UniProt O95750 191-216) (peptide)” returned an IC-50 of antagonism of FGF21 (pErk1/2, 293 HEK hKLB cells) of 2.97 µM.

“FGF19 169-194 (from UniProt O95750 169-194) (peptide)” gave an IC-50 of antagonism of FGF21 (pErk1/2, 293 HEK hKLB cells) of 0.27 µM and an IC-50 of antagonistic activity (FIG. 8B) of 0.05 µM.

The substance “FGF19 169-194 K194L (from UniProt O95750 191-216) (peptide)” yielded an IC-50 of antagonistic activity (FIG. 8A) of 17.3 nM.

For the substance “FGF19 169-194 alanine mutant G179 (from UniProt O95750 191-216) (peptide)”, the IC-50 of antagonism of FGF21 (pErk1/2, 293 HEK hKLB cells) was determined as 1.93 µM.

Consider “FGF19 169-194 alanine mutant V187 (from UniProt O95750 191-216) (peptide)”, for which the IC-50 of antagonism of FGF21 (pErk1/2, 293 HEK hKLB cells) was found to be 0.69 µM.

In turn, “FGF19 169-194 K194E (from UniProt O95750 191-216) (peptide)” returned an IC-50 of antagonistic activity (FIG. 8A) of 87.9 nM.

In turn, “FGF19 169-194 alanine mutant R188 (from UniProt O95750 191-216) (peptide)” yielded an IC-50 of antagonism of FGF21 (pErk1/2, 293 HEK hKLB cells) of 0.38 µM.

“FGF19 169-194 alanine mutant P169 (from UniProt O95750 191-216) (peptide)” showed an IC-50 of antagonism of FGF21 (pErk1/2, 293 HEK hKLB cells) of 0.21 µM.

The substance “FGF19 169-194 alanine mutant E171 (from UniProt O95750 191-216) (peptide)” registered an IC-50 of antagonism of FGF21 (pErk1/2, 293 HEK hKLB cells) of 0.12 µM.

Take “FGF19 169-194 alanine mutant L184 (from UniProt O95750 191-216) (peptide)”: the IC-50 of antagonism of FGF21 (pErk1/2, 293 HEK hKLB cells) came out at 0.2 µM.

As for “FGF19 169-194 alanine mutant G183 (from UniProt O95750 191-216) (peptide)”, the IC-50 of antagonism of FGF21 (pErk1/2, 293 HEK hKLB cells) came to 0.4 µM.

In the case of “FGF19 K194A (from UniProt O95750 25-216) (ligand)”, the % maximal activity, Erk1/2 phosphorylation in 293T HEK hKLB cells (FIG. 9B) came to 31% and the EC-50 of Erk1/2 phosphorylation in 293T HEK hKLB cells (FIG. 9B) is 8.1 nM.

In the case of “FGF19 169-194 alanine mutant E193 (from UniProt O95750 169-194) (peptide)”, the IC-50 of antagonism of FGF21 (pErk1/2, 293 HEK hKLB cells) was 0.85 µM.
